Laboratory results reported in the supplement of paper PMC11316812.
± gives the standard deviation of the averaged measurements.

Columns and labels:
MCF7 = assay: percentage of EdU-negative (G0-arrested) nuclei per well, 72 h; higher = more G0 arrest; details: reference: sequence is the full UniProt precursor, the tested protein was the secreted form or ectodomain
hTERT-HMEC = assay: as above; details: reference: sequence is the full UniProt precursor, the tested protein was the secreted form or ectodomain
[1] = protein concentration 0.0257143 µM
[2] = protein concentration 0.257143 µM
[3] = protein concentration 0.0209225 µM
[4] = protein concentration 0.209225 µM
[5] = protein concentration 0.0225 µM
[6] = protein concentration 0.01655 µM
[7] = protein concentration 0.1655 µM
[8] = protein concentration 0.0308571 µM
[9] = protein concentration 0.308571 µM
[10] = protein concentration 0.03125 µM
[11] = protein concentration 0.3125 µM
[12] = protein concentration 0.00775 µM
[13] = protein concentration 0.0775 µM
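Note: secreted proteins added to cultured cells, EdU pulse at the end, nuclei found by Hoechst imaging, EdU status from nuclear versus surrounding ring intensity ratio, PBS as neutral control.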

Sequence: MPGPSPGLRRALLGLWAALGLGLFGLSAVSQEPFWADLQPRVAFVERGGSLWLNCSTNCPRPERGGLETSLRRNGTQRGLRWLARQLVDIREPETQPVCFFRCARRTLQARGLIRTFQRPDRVELMPLPPWQPVGENFTLSCRVPGAGPRASLTLTLLRGAQELIRRSFAGEPPRARGAVLTATVLARREDHGANFSCRAELDLRPHGLGLFENSSAPRELRTFSLSPDAPRLAAPRLLEVGSERPVSCTLDGLFPASEARVYLALGDQNLSPDVTLEGDAFVATATATASAEQEGARQLVCNVTLGGENRETRENVTIYSFPAPLLTLSEPSVSEGQMVTVTCAAGAQALVTLEGVPAAVPGQPAQLQLNATENDDRRSFFCDATLDVDGETLIKNRSAELRVLYAPRLDDSDCPRSWTWPEGPEQTLRCEARGNPEPSVHCARSDGGAVLALGLLGPVTRALSGTYRCKAANDQGEAVKDVTLTVEYAPALDSVGCPERITWLEGTEASLSCVAHGVPPPDVICVRSGELGAVIEGLLRVAREHAGTYRCEATNPRGSAAKNVAVTVEYGPRFEEPSCPSNWTWVEGSGRLFSCEVDGKPQPSVKCVGSGGATEGVLLPLAPPDPSPRAPRIPRVLAPGIYVCNATNRHGSVAKTVVVSAESPPEMDESTCPSHQTWLEGAEASALACAARGRPSPGVRCSREGIPWPEQQRVSREDAGTYHCVATNAHGTDSRTVTVGVEYRPVVAELAASPPGGVRPGGNFTLTCRAEAWPPAQISWRAPPGALNIGLSSNNSTLSVAGAMGSHGGEYECAATNAHGRHARRITVRVAGPWLWVAVGGAAGGAALLAAGAGLAFYVQSTACKKGEYNVQEAESSGEAVCLNGAGGGAGGAAGAEGGPEAAGGAAESPAEGEVFAIQLTSA [Q9UMF0]
- percentage of EdU-negative (MCF7; protein concentration 0.015 µM): 26.9 ± 2.4%
- percentage of EdU-negative (MCF7; protein concentration 0.15 µM): 36.9 ± 2.7%
- percentage of EdU-negative (hTERT-HMEC; protein concentration 0.015 µM): 5.32 ± 0.067%
- percentage of EdU-negative (hTERT-HMEC; protein concentration 0.15 µM): 90.88 ± 0.53%

Sequence: MPGPWLLLALALTLNLTGVPGGRAQPEAAQQEAVTAAEHPGLDDFLRQVERLLFLRENIQRLQGDQGEHSASQIFQSDWLSKRQHPGKREEEEEEGVEEEEEEEGGAVGPHKRQHPGRREDEASWSVDVTQHKRQHPGRRSPWLAYAVPKRQHPGRRLADPKAQRSWEEEEEEEEREEDLMPEKRQHPGKRALGGPCGPQGAYGQAGLLLGLLDDLSRSQGAEEKRQHPGRRAAWVREPLEE
- percentage of EdU-negative (MCF7; [1]): 23.3 ± 4.8%
- percentage of EdU-negative (MCF7; [2]): 25.8 ± 1.8%
- percentage of EdU-negative (hTERT-HMEC; [1]): 5.72 ± 0.18%
- percentage of EdU-negative (hTERT-HMEC; [2]): 5.31 ± 0.67%

Sequence: MPGQELRTVNGSQMLLVLLVLSWLPHGGALSLAEASRASFPGPSELHSEDSRFRELRKRYEDLLTRLRANQSWEDSNTDLVPAPAVRILTPEVRLGSGGHLHLRISRAALPEGLPEASRLHRALFRLSPTASRSWDVTRPLRRQLSLARPQAPALHLRLSPPPSQSDQLLAESSSARPQLELHLRPQAARGRRRARARNGDHCPLGPGRCCRLHTVRASLEDLGWADWVLSPREVQVTMCIGACPSQFRAANMHAQIKTSLHRLKPDTVPAPCCVPASYNPMVLIQKTDTGVSLQTYDDLLAKDCHCI
- percentage of EdU-negative (MCF7; [3]): 23.8 ± 1.7%
- percentage of EdU-negative (MCF7; [4]): 30.5 ± 2.1%
- percentage of EdU-negative (hTERT-HMEC; [3]): 4.78 ± 0.13%
- percentage of EdU-negative (hTERT-HMEC; [4]): 8.07 ± 2.2%

Sequence: MPGRSCVALVLLAAAVSCAVAQHAPPWTEDCRKSTYPPSGPTYRGAVPWYTINLDLPPYKRWHELMLDKAPVLKVIVNSLKNMINTFVPSGKIMQVVDEKLPGLLGNFPGPFEEEMKGIAAVTDIPLGEIISFNIFYELFTICTSIVAEDKKGHLIHGRNMDFGVFLGWNINNDTWVITEQLKPLTVNLDFQRNNKTVFKASSFAGYVGMLTGFKPGLFSLTLNERFSINGGYLGILEWILGKKDVMWIGFLTRTVLENSTSYEEAKNLLTKTKILAPAYFILGGNQSGEGCVITRDRKESLDVYELDAKQGRWYVVQTNYDRWKHPFFLDDRRTPAKMCLNRTSQENISFETMYDVLSTKPVLNKLTVYTTLIDVTKGQFETYLRDCPDPCIGW
- percentage of EdU-negative (MCF7; [5]): 26.7 ± 2.9%
- percentage of EdU-negative (MCF7; protein concentration 0.225 µM): 26.1 ± 0.96%
- percentage of EdU-negative (hTERT-HMEC; [5]): 4.75 ± 0.61%
- percentage of EdU-negative (hTERT-HMEC; protein concentration 0.225 µM): 12.9 ± 1.1%

Sequence: MPGSPRPAPSWVLLLRLLALLRPPGLGEACSCAPAHPQQHICHSALVIRAKISSEKVVPASADPADTEKMLRYEIKQIKMFKGFEKVKDVQYIYTPFDSSLCGVKLEANSQKQYLLTGQVLSDGKVFIHLCNYIEPWEDLSLVQRESLNHHYHLNCGCQITTCYTVPCTISAPNECLWTDWLLERKLYGYQAQHYVCMKHVDGTCSWYRGHLPLRKEFVDIVQP
- percentage of EdU-negative (MCF7; [6]): 26.2 ± 1.7%
- percentage of EdU-negative (MCF7; [7]): 27.1 ± 0.65%
- percentage of EdU-negative (hTERT-HMEC; [6]): 5.41 ± 0.19%
- percentage of EdU-negative (hTERT-HMEC; [7]): 6.76 ± 0.1%

Sequence: MPKGRQKVPHLDAPLGLPTCLWLELAGLFLLVPWVMGLAGTGGPDGQGTGGPSWAVHLESLEGDGEEETLEQQADALAQAAGLVNAGRIGELQGHYLFVQPAGHRPALEVEAIRQQVEAVLAGHEAVRWHSEQRLLRRAKRSVHFNDPKYPQQWHLNNRRSPGRDINVTGVWERNVTGRGVTVVVVDDGVEHTIQDIAPNYSPEGSYDLNSNDPDPMPHPDVENGNHHGTRCAGEIAAVPNNSFCAVGVAYGSRIAGIRVLDGPLTDSMEAVAFNKHYQINDIYSCSWGPDDDGKTVDGPHQLGKAALQHGVIAGRQGFGSIFVVASGNGGQHNDNCNYDGYANSIYTVTIGAVDEEGRMPFYAEECASMLAVTFSGGDKMLRSIVTTDWDLQKGTGCTEGHTGTSAAAPLAAGMIALMLQVRPCLTWRDVQHIIVFTATRYEDRRAEWVTNEAGFSHSHQHGFGLLNAWRLVNAAKIWTSVPYLASYVSPVLKENKAIPQSPRSLEVLWNVSRMDLEMSGLKTLEHVAVTVSITHPRRGSLELKLFCPSGMMSLIGAPRSMDSDPNGFNDWTFSTVRCWGERARGTYRLVIRDVGDESFQVGILRQWQLTLYGSVWSAVDIRDRQRLLESAMSGKYLHDDFALPCPPGLKIPEEDGYTITPNTLKTLVLVGCFTVFWTVYYMLEVYLSQRNVASNQVCRSGPCHWPHRSRKAKEEGTELESVPLCSSKDPDEVETESRGPPTTSDLLAPDLLEQGDWSLSQNKSALDCPHQHLDVPHGKEEQIC
- percentage of EdU-negative (MCF7; [5]): 25.2 ± 2.4%
- percentage of EdU-negative (MCF7; protein concentration 0.225 µM): 25.9 ± 0.42%
- percentage of EdU-negative (hTERT-HMEC; [5]): 4.85 ± 0.1%
- percentage of EdU-negative (hTERT-HMEC; protein concentration 0.225 µM): 5.83 ± 0.0087%

Sequence: MPLGLLWLGLALLGALHAQAQDSTSDLIPAPPLSKVPLQQNFQDNQFQGKWYVVGLAGNAILREDKDPQKMYATIYELKEDKSYNVTSVLFRKKKCDYWIRTFVPGCQPGEFTLGNIKSYPGLTSYLVRVVSTNYNQHAMVFFKKVSQNREYFKITLYGRTKELTSELKENFIRFSKSLGLPENHIVFPVPIDQCIDG
- percentage of EdU-negative (MCF7; [8]): 26.8 ± 1.9%
- percentage of EdU-negative (MCF7; [9]): 28.2 ± 1.9%
- percentage of EdU-negative (hTERT-HMEC; [8]): 4.56 ± 0.62%
- percentage of EdU-negative (hTERT-HMEC; [9]): 8.76 ± 0.27%

Sequence: MPLLWLRGFLLASCWIIVRSSPTPGSEGHSAAPDCPSCALAALPKDVPNSQPEMVEAVKKHILNMLHLKKRPDVTQPVPKAALLNAIRKLHVGKVGENGYVEIEDDIGRRAEMNELMEQTSEIITFAESGTARKTLHFEISKEGSDLSVVERAEVWLFLKVPKANRTRTKVTIRLFQQQKHPQGSLDTGEEAEEVGLKGERSELLLSEKVVDARKSTWHVFPVSSSIQRLLDQGKSSLDVRIACEQCQESGASLVLLGKKKKKEEEGEGKKKGGGEGGAGADEEKEQSHRPFLMLQARQSEDHPHRRRRRGLECDGKVNICCKKQFFVSFKDIGWNDWIIAPSGYHANYCEGECPSHIAGTSGSSLSFHSTVINHYRMRGHSPFANLKSCCVPTKLRPMSMLYYDDGQNIIKKDIQNMIVEECGCS
- percentage of EdU-negative (MCF7; [10]): 26.6 ± 1.6%
- percentage of EdU-negative (MCF7; [11]): 27.8 ± 1.4%
- percentage of EdU-negative (hTERT-HMEC; [10]): 5.64 ± 0.18%
- percentage of EdU-negative (hTERT-HMEC; [11]): 5.29 ± 1.4%

Sequence: MPLRDETLREVWASDSGHEEESLSPEAPRRPKQRPAPAQRLRKKRTEAPESPCPTGSKPRKPGAGRTGRPREEPSPDPAQARAPQTVYARFLRDPEAKKRDPRETFLVARAPDAEDEEEEEEEDEEDEEEEAEEKKEKILLPPKKPLREKSSADLKERRAKAQGPRGDLGSPDPPPKPLRVRNKEAPAGEGTKMRKTKKKGSGEADKDPSGSPASARKSPAAMFLVGEGSPDKKALKKKGTPKGARKEEEEEEEAATVIKKSNQKGKAKGKGKKKAKEERAPSPPVEVDEPREFVLRPAPQGRTVRCRLTRDKKGMDRGMYPSYFLHLDTEKKVFLLAGRKRKRSKTANYLISIDPTNLSRGGENFIGKLRSNLLGNRFTVFDNGQNPQRGYSTNVASLRQELAAVIYETNVLGFRGPRRMTVIIPGMSAENERVPIRPRNASDGLLVRWQNKTLESLIELHNKPPVWNDDSGSYTLNFQGRVTQASVKNFQIVHADDPDYIVLQFGRVAEDAFTLDYRYPLCALQAFAIALSSFDGKLACE
- percentage of EdU-negative (MCF7; [12]): 25.1 ± 0.28%
- percentage of EdU-negative (MCF7; [13]): 25.5 ± 0.95%
- percentage of EdU-negative (hTERT-HMEC; [12]): 5.21 ± 0.36%
- percentage of EdU-negative (hTERT-HMEC; [13]): 6.67 ± 0.59%

Sequence: MPLSLGAEMWGPEAWLLLLLLLASFTGRCPAGELETSDVVTVVLGQDAKLPCFYRGDSGEQVGQVAWARVDAGEGAQELALLHSKYGLHVSPAYEGRVEQPPPPRNPLDGSVLLRNAVQADEGEYECRVSTFPAGSFQARLRLRVLVPPLPSLNPGPALEEGQGLTLAASCTAEGSPAPSVTWDTEVKGTTSSRSFKHSRSAAVTSEFHLVPSRSMNGQPLTCVVSHPGLLQDQRITHILHVSFLAEASVRGLEDQNLWHIGREGAMLKCLSEGQPPPSYNWTRLDGPLPSGVRVDGDTLGFPPLTTEHSGIYVCHVSNEFSSRDSQVTVDVLDPQEDSGKQVDLVSASVVVVGVIAALLFCLLVVVVVLMSRYHRRKAQQMTQKYEEELTLTRENSIRRLHSHHTDPRSQPEESVGLRAEGHPDSLKDNSSCSVMSEEPEGRSYSTLTTVREIETQTELLSPGSGRAEEEEDQDEGIKQAMNHFVQENGTLRAKPTGNGIYINGRGHLV [Q96NY8]
- percentage of EdU-negative (MCF7; [5]): 27.6 ± 2%
- percentage of EdU-negative (MCF7; protein concentration 0.225 µM): 27.8 ± 0.29%
- percentage of EdU-negative (hTERT-HMEC; [5]): 4.77 ± 0.36%
- percentage of EdU-negative (hTERT-HMEC; protein concentration 0.225 µM): 5.65 ± 0.22%
